Data on three molecules can be found in US7387779B2, “Anti-angiogenic proteins and fragments and methods of use thereof” (Beth Israel Deaconess Medical Center, priority 1998, dated 2008).

For one assay, the system named is PC-3 cells. In words: MTT cell viability assay. Format: cell-based, human. The following applies: 0-50 μg/ml. Here is the method: Cell viability was measured by MTT assay, as described above.
The effects of Tumstatin-44-131 and Tum-5-125-C-A on cell viability of C-PAE cells were not seen in control PC-3 and DU-145 cells, as shown in FIGS. 52C and 52D. […] The activity of Tumstatin-44-131 is therefore specific to endothelial cells.

The next assay deals with WM-164 cells. In words: MTT cell viability assay. It is filed as cell-based, human. An excerpt: The MTT assay was used to evaluate cell viability in C-PAE endothelial cells and WM-164 melanoma cells after treatment with Tumstatin, Tum-1, Tum-2, Tum-3 and Tum-4. The results are shown in FIGS. 34A and 34B, which are a pair of graphs showing the effect of increasing concentration (x-axis) of Tumstatin, Tum-1, Tum-2, Tum-3 and Tum-4 on the cell viability (y-axis) of C-PAE cells (FIG. 34A) and WM-164 cells (FIG. 34B). Each point represents the mean ±the standard error of the mean for triplicate wells.

In a further assay the target is T1, αvβ3 integrin protein (Homo sapiens, UniProt P05106+P06756).
T1 construct: purchased CHEMICON Int'l, Temecula, Calif., USA
In words: Competition proliferation assay with soluble αvβ3 protein, WM-164 cells. It is filed as cell-based. The following applies: αvβ3 protein at 2 μg/ml. Here is the method:
αvβ3 was then tested for its ability to negate the anti-proliferative effect of Tum-4 on melanoma cells. Tumstatin and Tum-4 were pre-incubated for 30 minutes at room temperature with αvβ3 integrin protein, then added to WM-164 cells grown in 96-well plates. After 48 hours of incubation, the increase in cell number was determined by methylene blue staining. Tumstatin had no effect on WM-164 cells.

In another assay the test system is ERK. In words: ERK activation (phospho-ERK western blot) in HUVEC. The note with it: 20 μg/ml. Format: cell-based, human. The procedure:
In order to further understand the molecular mechanisms involved in Canstatin's anti-proliferative and anti-migratory activities, the effect of Canstatin on ERK (Extracellular signal-Regulated Kinase) activation induced by 20% fetal bovine serum and endothelial mitogens was assessed. HUVEC cells were cultured overnight in McCoy's medium supplemented with 20% FBS, 1% penicillin/streptomycin, 100 μg/ml heparin and 50 μg/ml endothelial mitogen (Biomedical Technologies, Inc., Cambridge, Mass., USA). The following day, cells were washed and grown for 4 hours in low serum medium (McCoy's medium supplemented with 1% penicillin/streptomycin, 100 μg/ml heparin and 5% FBS). After 4 hours, the medium was replaced with fresh low serum medium with or without 20 μg/ml Canstatin. One hour later the serum concentration was adjusted to 20% and endothelial mitogen was added to a final concentration of 50 μg/ml. At 0, 5, 10, 25, and 40 minutes, the cells were washed with PBS and lysed with passive lysis mix (Promega, Madison, Wis., USA) plus leupeptin, PMSF, NaF, Na3VO4, β-glycerophosphate, and sodium pyrophosphate. Lysates were quantified for protein concentration and separated on 12% SDS-PAGE gels. Western blots of phospho-ERK were made for serum-treated and serum+Canstatin-treated HUVECs using anti-phospho-ERK antibodies (New England Biolabs, Beverly, Mass., USA). […]

Another assay has as its system PC-3 tumors. In words: PC-3 prostate tumor xenograft in SCID mice. Format: in vivo. The following applies: 10 mg/kg. Here is the method: Human prostate adenocarcinoma cells (PC-3 cells) were harvested from culture and 2 million cells in sterile PBS were injected subcutaneously into 7- to 9-week-old male SCID mice. The tumors grew for approximately 4 weeks after which animals were divided into groups of 4 mice. […] The control group received equal volumes of PBS each day. At the start of treatment (day 0), the tumors ranged in volume from 88 mm^3 to 135 mm^3 for the control mice, and 108 mm^3 to 149 mm^3 for the Canstatin-treated mice. Each group contained five mice. […] Canstatin-treated (▪) tumors increased only marginally in size relative to controls (□).

T1 sequence (P06756 31-889 limits assumed): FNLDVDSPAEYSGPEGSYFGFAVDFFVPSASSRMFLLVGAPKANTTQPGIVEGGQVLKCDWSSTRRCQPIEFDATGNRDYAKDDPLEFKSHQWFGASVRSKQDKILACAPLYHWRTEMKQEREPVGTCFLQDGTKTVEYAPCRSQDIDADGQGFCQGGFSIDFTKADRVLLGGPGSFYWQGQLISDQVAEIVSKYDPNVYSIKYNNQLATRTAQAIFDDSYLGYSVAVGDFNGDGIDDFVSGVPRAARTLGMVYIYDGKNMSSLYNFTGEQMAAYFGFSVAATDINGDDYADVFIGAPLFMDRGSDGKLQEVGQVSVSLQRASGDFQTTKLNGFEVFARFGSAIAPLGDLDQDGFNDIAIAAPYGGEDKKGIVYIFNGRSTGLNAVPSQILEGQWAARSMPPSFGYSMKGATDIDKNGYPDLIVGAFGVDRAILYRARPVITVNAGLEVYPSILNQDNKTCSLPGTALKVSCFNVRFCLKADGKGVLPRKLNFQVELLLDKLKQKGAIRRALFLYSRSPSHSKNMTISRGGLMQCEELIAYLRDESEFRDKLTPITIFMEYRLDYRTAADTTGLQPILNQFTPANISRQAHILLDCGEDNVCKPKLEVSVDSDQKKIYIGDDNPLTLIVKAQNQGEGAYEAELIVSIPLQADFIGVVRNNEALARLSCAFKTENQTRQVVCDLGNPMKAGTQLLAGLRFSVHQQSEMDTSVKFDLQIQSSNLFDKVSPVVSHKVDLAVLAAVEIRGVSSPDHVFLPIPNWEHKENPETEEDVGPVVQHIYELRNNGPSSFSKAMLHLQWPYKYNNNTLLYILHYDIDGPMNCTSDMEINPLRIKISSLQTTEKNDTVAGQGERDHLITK
T1 sequence (P06756 891-1048 partner limits assumed): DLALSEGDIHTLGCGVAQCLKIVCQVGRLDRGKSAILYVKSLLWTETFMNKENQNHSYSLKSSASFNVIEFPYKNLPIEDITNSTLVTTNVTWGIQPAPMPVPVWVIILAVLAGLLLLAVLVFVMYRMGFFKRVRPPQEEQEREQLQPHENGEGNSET
T1 sequence (P05106 27-788): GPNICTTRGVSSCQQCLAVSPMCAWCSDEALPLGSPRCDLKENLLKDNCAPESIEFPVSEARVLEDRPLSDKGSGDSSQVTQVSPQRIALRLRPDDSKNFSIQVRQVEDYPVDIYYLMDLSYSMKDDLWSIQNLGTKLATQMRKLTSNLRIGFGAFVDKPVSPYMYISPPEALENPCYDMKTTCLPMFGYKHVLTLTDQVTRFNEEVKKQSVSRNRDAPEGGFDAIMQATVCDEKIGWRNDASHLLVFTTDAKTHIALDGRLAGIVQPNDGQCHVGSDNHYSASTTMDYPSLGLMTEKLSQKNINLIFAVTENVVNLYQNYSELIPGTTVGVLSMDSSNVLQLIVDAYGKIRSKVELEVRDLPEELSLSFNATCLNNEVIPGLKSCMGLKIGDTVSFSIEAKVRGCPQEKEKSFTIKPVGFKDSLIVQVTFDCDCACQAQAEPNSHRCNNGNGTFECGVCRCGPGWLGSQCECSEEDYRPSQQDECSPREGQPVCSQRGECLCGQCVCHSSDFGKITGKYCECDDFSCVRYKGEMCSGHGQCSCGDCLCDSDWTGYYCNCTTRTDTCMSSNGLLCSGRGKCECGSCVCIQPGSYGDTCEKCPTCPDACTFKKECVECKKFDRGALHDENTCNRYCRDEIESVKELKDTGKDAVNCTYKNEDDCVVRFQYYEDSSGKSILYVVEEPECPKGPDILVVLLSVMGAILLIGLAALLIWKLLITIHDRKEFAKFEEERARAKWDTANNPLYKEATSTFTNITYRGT

B1: Tumstatin-44-131: residues 44 to 131 of full-length Tumstatin (SEQ ID NO:33) (protein)
chain: FSFLFVQGNQRAHGQDLGTLGSCLQRFTTMPFLFCNVNDVCNFASRNDYSYWLSTPALMPMNMAPITGRALEPYISRCTVCEGPAIAI
modifications: Tumstatin-45-132 (amino acids 45-132 of SEQ ID NO10)
Consider B1, for which the “effect on viability of PC-3 cells” value in the assay with PC-3 cells is recorded as “not seen”.

B2: Tum-4: residues 181 to 244 of Tumstatin (SEQ ID NO:25) (protein)
chain: EFRASPFLECHGRGTCNYYSNSYSFWLASLNPERMFRKPIPSTVKAGELEKIISRCQVCMKKRH
modifications: Tum-4 (amino acids 181-244 of SEQ ID NO10)
B2: the “effect on viability of WM-164 melanoma cells” value with WM-164 cells is reported as “decreased the viability”. In the assay with αvβ3 integrin protein, the “recovery of anti-proliferative effect by soluble αvβ3 protein” value was 76.7%.

B3: Canstatin: NC1 domain of the α2 chain of Type IV collagen (SEQ ID NO:6) (protein, listed as Homo sapiens)
chain: VSIGYLLVKHSQTDQEPMCPVGMNKLWSGYSLLYFEGQEKAHNQDLGLAGSCLARFSTMPFLYCNPGDVCYYASRNDKSYWLSTTAPLPMMPVAEDEIKPYISRCSVCEAPAIAIAVHSQDVSIPHCPAGWRSLWIGYSFLMHTAAGDEGGGQSLVSPGSCLEDFRATPFIECNGGRGTCHYYANKYSFWLTTIPEQSFQGSPSADTLKAGLIRTHISRCQVCMKNL
B3: in the assay with ERK, the “effect on ERK activation” value is given as “did not alter early activation of ERK”. In the assay with PC-3 tumors, the “fractional tumor volume as % of vehicle only-injected mice” value amounted to 55% and the “fractional tumor volume, fold less than vehicle” value was determined as 1.8 fold.
